Results on 47 substances are retold here after patent US10047131B2, “Peptides and combination of peptides for use in immunotherapy against ovarian cancer and other cancers” (immatics biotechnologies GmbH, priority 2015, dated 2018).

This test deals with HLA-A*02:01 (Homo sapiens, UniProt P04439, D140Y/D185E/D98H/E176V/E277Q/G131W/G231S/I119V/I121R/I166T/I218V/L300P/L318F/N151K/N90K/P208A/P217A/Q86G/Q94H/R138H/R169H/T345S). Briefly: MHC binding assay (UV-ligand exchange, ELISA of exchange yield). The following applies: binding to HLA-A*02:01, UV-ligand exchange. The text has this: Candidate peptides for T cell based therapies according to the present invention were further tested for their MHC binding capacity (affinity). The individual peptide-MHC complexes were produced by UV-ligand exchange, where a UV-sensitive peptide is cleaved upon UV-irradiation, and exchanged with the peptide of interest as analyzed. Only peptide candidates that can effectively bind and stabilize the peptide-receptive MHC molecules prevent dissociation of the MHC complexes. To determine the yield of the exchange reaction, an ELISA was performed based on the detection of the light chain (p2m) of stabilized MHC complexes. The assay was performed as generally described in Rodenko et al. (Rodenko et al., 2006).
96 well MAXISorp plates (NUNC) were coated over night with 2 μg/ml streptavidin in PBS at room temperature, washed 4× and blocked for 1 h at 37° C. in 2% BSA containing blocking buffer. […] Peptide-MHC monomers of the UV-exchange reaction were diluted 100 fold in blocking buffer. Samples were incubated for 1h at 37° C., washed four times, incubated with 2 μg/ml HRP conjugated anti-β2m for 1h at 37° C., washed again and detected with TMB solution that is stopped with […]. Absorption was measured at 450 nm. Candidate peptides that show a high exchange yield (preferably higher than 50%, most preferred higher than 75%) are generally preferred for a generation and production of antibodies or fragments thereof, and/or T cell receptors or fragments thereof, as they show sufficient avidity to the MHC molecules and prevent dissociation of the MHC complexes.
For “1 (SLMEPPAVLLL; listed as Homo sapiens) [compound 1]”, the “Peptide exchange (MHC class I binding score, peptide exchange yield)” value (shortened to “Peptide exchange”) is recorded as ““+++” (≥50 = +++)”. The same measure for “2 (SLLEADPFL; listed as Homo sapiens) [compound 2]”: ““+++” (≥50 = +++)”; for “3 (SLASKLTTL; listed as Homo sapiens) [compound 3]”: ““++++” (≥75% = ++++)”. Then “4 (GIMEHITKI; listed as Homo sapiens) [compound 4]”, with ““++++” (≥75% = ++++)”; and “5 (HLTEVYPEL; listed as Homo sapiens) [compound 5]”, with ““+++” (≥50 = +++)”; and “6 (VLVSDGVHSV; listed as Homo sapiens) [compound 6]”, with ““+++” (≥50 = +++)”.

Turning to “7 (SLVGLLLYL; listed as Homo sapiens) [compound 7]”, the “Peptide exchange” value was ““++++” (≥75% = ++++)”. The same measure for “8 (FTLGNVVGMYL; listed as Homo sapiens) [compound 8]”: ““++++” (≥75% = ++++)”; for “9 (GAAKDLPGV; listed as Homo sapiens) [compound 9]”: ““++” (≥20% = ++)”. In the case of “10 (FLATFPLAAV; listed as Homo sapiens) [compound 10]”, the “Peptide exchange” value was ““++++” (≥75% = ++++)”. The same measure for “11 (KIFEMLEGV; listed as Homo sapiens) [compound 11]”: ““+++” (≥50 = +++)”; for “12 (SLWPDPMEV; listed as Homo sapiens) [compound 12]”: ““+++” (≥50 = +++)”; for “13 (YLMDESLNL; listed as Homo sapiens) [compound 13]”: ““+++” (≥50 = +++)”. Then “14 (AAYGGLNEKSFV; listed as Homo sapiens) [compound 14]”, with ““+++” (≥50 = +++)”; and “15 (VLLTFKIFL; listed as Homo sapiens) [compound 15]”, with ““++” (≥20% = ++)”; and “16 (VLFQGQASL; listed as Homo sapiens) [compound 16]”, with ““+++” (≥50 = +++)”. Consider “17 (GLLPGDRLVSV; listed as Homo sapiens) [compound 17]”, for which the “Peptide exchange” value is reported as ““+++” (≥50 = +++)”. Then “18 (YLVAKLVEV; listed as Homo sapiens) [compound 18]”, with ““++” (≥20% = ++)”. Then “19 (FMVDNEAIYDI; listed as Homo sapiens) [compound 19]”, with ““++++” (≥75% = ++++)”. The same measure for “20 (RMIEYFIDV; listed as Homo sapiens) [compound 20]”: ““+++” (≥50 = +++)”; for “21 (VLDELDMEL; listed as Homo sapiens) [compound 21]”: ““++” (≥20% = ++)”; for “22 (IMEENPGIFAV; listed as Homo sapiens) [compound 22]”: ““+++” (≥50 = +++)”. With “23 (VLLDDIFAQL; listed as Homo sapiens) [compound 23]”, the “Peptide exchange” value is given as ““+++” (≥50 = +++)”. Then “24 (SLSDGLEEV; listed as Homo sapiens) [compound 24]”, with ““++” (≥20% = ++)”; and “25 (FLPDEPYIKV; listed as Homo sapiens) [compound 25]”, with ““+++” (≥50 = +++)”; and “26 (ALLELAEEL; listed as Homo sapiens) [compound 26]”, with ““+++” (≥50 = +++)”. The same measure for “27 (ILADIVISA; listed as Homo sapiens) [compound 27]”: ““+++” (≥50 = +++)”; for “28 (QLLDETSAITL; listed as Homo sapiens) [compound 28]”: ““+++” (≥50 = +++)”.

For the substance “29 (KMLGIPISNILMV; listed as Homo sapiens) [compound 29]”, the “Peptide exchange” value is recorded as ““+++” (≥50 = +++)”. The same measure for “30 (LILDWVPYI; listed as Homo sapiens) [compound 30]”: ““+++” (≥50 = +++)”. Then “31 (YLAPELFVNV; listed as Homo sapiens) [compound 31]”, with ““++” (≥20% = ++)”.

For the substance “32 (KLDDLTQDLTV; listed as Homo sapiens) [compound 32]”, the “Peptide exchange” value was ““++” (≥20% = ++)”.

Consider “33 (VLLSLLEKV; listed as Homo sapiens) [compound 33]”, for which the “Peptide exchange” value is given as ““++” (≥20% = ++)”.

As to “34 (ILVEADSLWVV; listed as Homo sapiens) [compound 34]”, the “Peptide exchange” value is ““+++” (≥50 = +++)”.

With “35 (KINDTIYEV; listed as Homo sapiens) [compound 35]”, the “Peptide exchange” value is ““+++” (≥50 = +++)”.

In the case of “36 (YVLEDLEVTV; listed as Homo sapiens) [compound 36]”, the “Peptide exchange” value is reported as ““++” (≥20% = ++)”. The same measure for “38 (FLLEDDIHVS; listed as Homo sapiens) [compound 38]”: ““+++” (≥50 = +++)”; for “39 (SVAPNLPAV; listed as Homo sapiens) [compound 39]”: ““+++” (≥50 = +++)”; for “40 (TLLVKVFSV; listed as Homo sapiens) [compound 40]”: ““+++” (≥50 = +++)”.

With “41 (SLMPHIPGL; listed as Homo sapiens) [compound 41]”, the “Peptide exchange” value is ““+++” (≥50 = +++)”. As for “42 (VLLQKIVSA; listed as Homo sapiens) [compound 42]”, the “Peptide exchange” value was ““+++” (≥50 = +++)”. The same measure for “43 (VLSSLEINI; listed as Homo sapiens) [compound 43]”: ““++” (≥20% = ++)”; for “44 (ILDPISSGFLL; listed as Homo sapiens) [compound 44]”: ““++” (≥20% = ++)”; for “45 (SLWQDIPDV; listed as Homo sapiens) [compound 45]”: ““+++” (≥50 = +++)”. The same measure for “46 (ILTEENIHL; listed as Homo sapiens) [compound 46]”: ““+++” (≥50 = +++)”; for “47 (ILLSVPLLVV; listed as Homo sapiens) [compound 47]”: ““++” (≥20% = ++)”. The same measure for “48 (ALAELYEDEV; listed as Homo sapiens) [compound 48]”: ““+++” (≥50 = +++)”.
